The results in this text go back to article PMC9062482, “Structural and genome-wide analyses suggest that transposon-derived protein SETMAR alters transcription and splicing”.

In data set [1] the target is SETMAR DNA-binding domain, residues 329 to 440 (C381R) (I359M) (L423M) (human). Nature of the data set: crystal structure; SETMAR DBD 329-440 (C381R, I359M, L423M) with brominated 25-mer TIR DNA duplex, protein:DNA 1:1.2, 50 mM Hepes pH 7.5, 150 mM NaCl, 1 mM DTT; hanging drops at 20 °C, 0.1 M magnesium formate, 15% PEG3350; 2.37 Å.
Data set [2] addresses T1, SETMAR full-length WT (Homo sapiens, UniProt Q53H47 14-684).
T1 sequence: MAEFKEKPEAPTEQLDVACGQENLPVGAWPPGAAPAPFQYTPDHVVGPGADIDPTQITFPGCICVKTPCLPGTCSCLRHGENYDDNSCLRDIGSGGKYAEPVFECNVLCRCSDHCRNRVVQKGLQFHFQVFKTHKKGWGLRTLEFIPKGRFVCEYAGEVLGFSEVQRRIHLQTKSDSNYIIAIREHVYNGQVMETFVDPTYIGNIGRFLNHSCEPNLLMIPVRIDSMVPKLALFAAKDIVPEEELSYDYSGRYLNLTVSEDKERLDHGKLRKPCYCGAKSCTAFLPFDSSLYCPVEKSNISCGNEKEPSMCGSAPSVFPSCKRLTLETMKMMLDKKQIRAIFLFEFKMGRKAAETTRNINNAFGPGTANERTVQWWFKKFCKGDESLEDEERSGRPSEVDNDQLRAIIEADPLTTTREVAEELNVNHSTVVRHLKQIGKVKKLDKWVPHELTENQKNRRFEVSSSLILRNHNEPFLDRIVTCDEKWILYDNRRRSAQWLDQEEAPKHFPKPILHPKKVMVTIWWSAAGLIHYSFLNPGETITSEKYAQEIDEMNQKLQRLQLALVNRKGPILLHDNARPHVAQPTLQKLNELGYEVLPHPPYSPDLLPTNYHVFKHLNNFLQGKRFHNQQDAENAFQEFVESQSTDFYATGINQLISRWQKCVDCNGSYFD
The experiment in a line: fluorescence anisotropy; 20 nM probe; FA and competition: 50 mM Hepes pH 7.0, 150 mM NaCl, 1 mM DTT; temperature not stated. Crystals: 50 mM Hepes pH 7.5, 150 mM NaCl, 1 mM DTT; 0.1 M Mg formate, 15% PEG3350, 20 C. The following applies: protein: recombinant; chain copies: 2; label: 5' rhodamine (C6 amino) on strand 2; blunt. Background: In fluorescence polarisation assays a small probe gives low polarisation when free and higher when bound to something large.

A further data set has as its target T2, SETMAR R432A (Homo sapiens, UniProt Q53H47 14-684, R445A).
T2 sequence: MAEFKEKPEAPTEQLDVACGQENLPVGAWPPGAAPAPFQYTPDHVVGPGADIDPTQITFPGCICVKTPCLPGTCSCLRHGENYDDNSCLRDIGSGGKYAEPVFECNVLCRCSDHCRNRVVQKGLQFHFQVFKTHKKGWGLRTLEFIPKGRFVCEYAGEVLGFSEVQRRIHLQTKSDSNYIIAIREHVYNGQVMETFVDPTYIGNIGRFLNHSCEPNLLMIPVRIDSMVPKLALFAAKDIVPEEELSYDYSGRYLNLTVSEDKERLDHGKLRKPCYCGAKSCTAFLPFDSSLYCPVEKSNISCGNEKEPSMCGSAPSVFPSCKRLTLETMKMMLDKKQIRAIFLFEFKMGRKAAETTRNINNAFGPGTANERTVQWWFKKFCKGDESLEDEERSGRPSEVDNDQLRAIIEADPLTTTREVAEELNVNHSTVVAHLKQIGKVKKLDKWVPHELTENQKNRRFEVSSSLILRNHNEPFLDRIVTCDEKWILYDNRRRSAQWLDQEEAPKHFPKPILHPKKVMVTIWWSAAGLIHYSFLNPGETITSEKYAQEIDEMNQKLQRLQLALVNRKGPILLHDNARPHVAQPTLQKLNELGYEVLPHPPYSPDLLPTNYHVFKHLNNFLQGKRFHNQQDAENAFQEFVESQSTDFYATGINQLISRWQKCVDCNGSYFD
The experiment in a line: fluorescence anisotropy; 10 nM probe; FA and competition: 50 mM Hepes pH 7.0, 150 mM NaCl, 1 mM DTT; temperature not stated. Crystals: 50 mM Hepes pH 7.5, 150 mM NaCl, 1 mM DTT; 0.1 M Mg formate, 15% PEG3350, 20 C. The following applies: protein: recombinant; chain copies: 2; label: 5' rhodamine (C6 amino) on strand 2; blunt.

The next data set has as its target T3, SETMAR R371A (Homo sapiens, UniProt Q53H47 14-684, R384A).
T3 sequence: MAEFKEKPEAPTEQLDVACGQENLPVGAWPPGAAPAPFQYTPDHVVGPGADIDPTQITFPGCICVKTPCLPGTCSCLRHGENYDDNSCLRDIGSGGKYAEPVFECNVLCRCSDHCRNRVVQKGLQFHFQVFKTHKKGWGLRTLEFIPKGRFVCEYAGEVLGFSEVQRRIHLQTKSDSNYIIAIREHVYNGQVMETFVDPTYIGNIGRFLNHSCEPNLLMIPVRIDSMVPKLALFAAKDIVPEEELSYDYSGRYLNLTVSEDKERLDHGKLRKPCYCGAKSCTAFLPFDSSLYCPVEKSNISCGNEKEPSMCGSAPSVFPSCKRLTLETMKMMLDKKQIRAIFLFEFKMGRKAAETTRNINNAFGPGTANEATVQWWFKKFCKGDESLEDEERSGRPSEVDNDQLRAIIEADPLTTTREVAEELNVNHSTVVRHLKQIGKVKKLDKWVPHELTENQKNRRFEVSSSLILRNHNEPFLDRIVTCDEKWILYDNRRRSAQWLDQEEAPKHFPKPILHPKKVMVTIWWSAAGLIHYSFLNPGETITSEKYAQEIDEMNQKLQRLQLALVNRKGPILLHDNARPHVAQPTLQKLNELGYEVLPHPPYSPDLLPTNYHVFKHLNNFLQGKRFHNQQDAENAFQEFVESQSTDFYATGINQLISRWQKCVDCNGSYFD
Described as above. The following applies: protein: recombinant; chain copies: 2; label: 5' rhodamine (C6 amino) on strand 2; blunt.

The target of a further data set is T4, SETMAR S428A (Homo sapiens, UniProt Q53H47 14-684, S441A).
T4 sequence: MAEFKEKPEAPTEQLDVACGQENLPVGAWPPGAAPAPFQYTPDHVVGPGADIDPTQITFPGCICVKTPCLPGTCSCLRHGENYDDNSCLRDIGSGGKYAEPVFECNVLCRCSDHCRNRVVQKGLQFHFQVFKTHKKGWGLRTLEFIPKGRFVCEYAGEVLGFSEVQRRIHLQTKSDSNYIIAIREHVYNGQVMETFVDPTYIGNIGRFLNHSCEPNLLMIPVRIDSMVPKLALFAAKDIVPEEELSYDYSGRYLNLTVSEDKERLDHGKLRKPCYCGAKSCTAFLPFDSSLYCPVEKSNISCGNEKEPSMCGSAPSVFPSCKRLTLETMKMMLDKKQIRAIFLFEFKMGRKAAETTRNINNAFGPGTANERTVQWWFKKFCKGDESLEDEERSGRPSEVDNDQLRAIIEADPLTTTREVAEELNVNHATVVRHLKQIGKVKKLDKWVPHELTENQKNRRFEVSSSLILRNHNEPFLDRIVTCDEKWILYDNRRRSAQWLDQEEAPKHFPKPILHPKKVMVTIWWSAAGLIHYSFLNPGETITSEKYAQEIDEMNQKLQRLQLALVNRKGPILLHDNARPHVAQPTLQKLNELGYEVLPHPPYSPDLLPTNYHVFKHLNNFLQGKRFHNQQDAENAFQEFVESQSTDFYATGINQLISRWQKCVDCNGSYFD
The description is as above. The following applies: protein: recombinant; chain copies: 2; label: 5' rhodamine (C6 amino) on strand 2; blunt.

For data set [3], the target named is T1, SETMAR full-length WT. The experiment in a line: fluorescence anisotropy; 10 nM probe; mutant comparison series; FA and competition: 50 mM Hepes pH 7.0, 150 mM NaCl, 1 mM DTT; temperature not stated. Crystals: 50 mM Hepes pH 7.5, 150 mM NaCl, 1 mM DTT; 0.1 M Mg formate, 15% PEG3350, 20 C. The following applies: protein: recombinant; chain copies: 2; label: 5' rhodamine (C6 amino) on strand 2; blunt.

A further data set has as its target T5, SETMAR DBD C381R (Homo sapiens, UniProt Q53H47 342-453, C394R).
T5 sequence: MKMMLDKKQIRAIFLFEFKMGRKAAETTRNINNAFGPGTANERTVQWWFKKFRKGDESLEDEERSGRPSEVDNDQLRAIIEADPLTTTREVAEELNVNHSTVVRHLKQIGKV
The experiment in a line: X-ray crystallography; 2.37 A; FA and competition: 50 mM Hepes pH 7.0, 150 mM NaCl, 1 mM DTT; temperature not stated. Crystals: 50 mM Hepes pH 7.5, 150 mM NaCl, 1 mM DTT; 0.1 M Mg formate, 15% PEG3350, 20 C. The following applies: protein: recombinant; tags: none (His-SUMO removed); chain copies: 2; 25 bp, 3' overhang 1 nt on each strand (A and T).

In data set [4] the target is T1, SETMAR full-length WT. The experiment in a line: competition (fluorescence anisotropy); 300 nM protein, 20 nM probe; FA and competition: 50 mM Hepes pH 7.0, 150 mM NaCl, 1 mM DTT; temperature not stated. Crystals: 50 mM Hepes pH 7.5, 150 mM NaCl, 1 mM DTT; 0.1 M Mg formate, 15% PEG3350, 20 C. The following applies: protein: recombinant; chain copies: 2; blunt.
Data set [5] addresses T6, SETMAR DBD C381R I359M L423M (SeMet) (Homo sapiens, UniProt Q53H47 342-453, I372M;C394R;L436M).
T6 sequence: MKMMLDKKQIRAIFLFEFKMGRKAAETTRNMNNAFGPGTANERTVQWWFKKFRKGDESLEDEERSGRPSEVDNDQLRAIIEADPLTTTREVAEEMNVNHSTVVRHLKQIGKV
The experiment in a line: X-ray crystallography; Se-SAD phasing, 2.66 A; FA and competition: 50 mM Hepes pH 7.0, 150 mM NaCl, 1 mM DTT; temperature not stated. Crystals: 50 mM Hepes pH 7.5, 150 mM NaCl, 1 mM DTT; 0.1 M Mg formate, 15% PEG3350, 20 C. The following applies: protein: recombinant; tags: none (His-SUMO removed); chain copies: 2; 25 bp, 3' overhang 1 nt on each strand (A and T).

For orientation: stoichiometry N means the number of molecules, sites or subunits per partner or assembly. Molecule “SETMAR DNA-binding domain, residues 329 to 440 (C381R) (I359M) (L423M) (domain or fragment)” registered a stoichiometry N in data set [1] of 2.

B1: rhodamine Hsmar1 TIR probe (dsDNA)
DNA 1: TTAGGTTGGTGCAAAAGTAATTGCGGTT
DNA 2: AACCGCAATTACTTTTGCACCAACCTAA
In general, Kd refers to the equilibrium constant for the complex coming apart. For B1, the Kd came to 53 ± 4 nM with SETMAR full-length WT [2]; 302 ± 47 nM with SETMAR R432A; 521 ± 65 nM with SETMAR R371A; 485 ± 58 nM in the data set with SETMAR S428A; 42 ± 5 nM with SETMAR full-length WT [3].

B2: TIR crystallization duplex (dsDNA)
DNA 1: GGTTGGTGCAAAAGTAATTGCGGTTA
DNA 2: AACCGCAATTACTTTTGCACCAACCT
With B2, in the data set with SETMAR DBD C381R, the binding result is “binds”.

B3: Mos1 TIR (dsDNA)
DNA 1: TCAGGTGTACAAGTATGAAATGTCGTTT
DNA 2: AAACGACATTTCATACTTGTACACCTGA
In the case of B3, in the data set with SETMAR full-length WT [4], the binding result is on record as “no binding”.

B4: Hsmar1 TIR without sequence-specific binding sites (dsDNA)
DNA 1: TTAGGTTAATATAAAAGTAATTGTGGTT
DNA 2: AACCACAATTACTTTTATATTAACCTAA
Consider B4, for which the binding result with SETMAR full-length WT [4] is “no binding”.

B5: BrdU-substituted TIR crystallization duplex (dsDNA)
DNA 1: GGTTGGTGCAAAAGTAATTGCGGTTA
DNA 2: AACCGCAATTACTTTTGCACCAACCT
modifications: 5-bromodeoxyuridine replacing underlined Ts (positions not visible in text)
As to B5, the binding result in [5] was “binds”.
